Source: the supplement of paper PMC10567573

B1: HESX1 (parent)
chain: ENKPSTCSFSIERILGLDQKKDCV

Variants of: B1
Experiment: protein stability index of a GFP-peptide fusion (GPS, HEK-293T) (PSI 1-6); higher = more stable
Conditions: c terminus: a fixed tail appended
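Also: lentivirally expressed fusions sorted by FACS into six bins by GFP to DsRed ratio, PSI derived from sequencing read proportions per bin multiplied by bin number.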

Protein stability index of substitutions, site by site:
S8: G 2.51; K 2.94; F 3.04; I 2.83; D 3.88; H 2.7; E 4.18; V 3.1; Q 3.23; T 3.52; M 3.73; A 3.46; Y 2.66; R 2.79; P 4.2; L 3.07; N 3.07; C 4.28; W 2.14
C7: T 3.74; F 3.11; S 3.98; M 3.32; Q 3.96; L 2.94; H 3.91; K 3.52; G 3.87; W 2.33; Y 3.43; N 4.05; P 4.01; D 4.13; R 3.92; I 1.84; E 4.23; V 3.17; A 3.58
E12: S 2.84; C 2.45; N 3.44; P 2.94; Y 1.9; Q 2.57; K 2.86; M 1.86; L 1.86; W 1.48; H 2.47; V 1.64; I 1.61; D 3.8; G 3.65; R 2.46; F 1.63; T 2.94
T6: Q 3.12; F 2.85; K 2.41; D 3.96; G 3.5; H 3.24; Y 3.16; L 3.14; V 2.71; I 2.9; P 2.77; N 3.06; E 3.39; S 3.12; R 2; M 2.37; A 3.46; W 2.53; C 2.43
R13: A 3.18; E 3.46; D 3.9; C 2.6
S5: W 2.13; N 3.09; Y 2.54; I 3.02; V 2.5; L 2.18; C 2.71; D 3.16; F 1.96; T 3.42; G 3.31; P 3.48; H 2.81; E 3.77; Q 2.89; K 2.85; R 2.56; M 2.75; A 2.94
F9: K 4.3; L 4.07; W 2.42; A 3.86; T 4.45; N 4.2; D 4.24; S 3.97; Y 3.52; R 3.88; P 5.09; G 4.43; H 4.15; M 2.79; E 4.41; I 3.43; Q 4.3; C 3.43; V 4.09
I11: M 3.42; W 2.77; R 4.73; V 2.91; Y 3.13; F 3.06; E 5.05; G 3.13; K 4; P 5.12; D 4.04; L 3.58; A 3.27; H 3.7; S 4.21; C 3.27; N 4.63; T 3.52; Q 3.97
P4: R 3.41; V 3.35; W 2.54; K 2.7; Q 3.18; T 3.67; L 2.86; M 2.99; Y 1.94; I 3.02; N 2.79; S 2.71
S10: K 3.77; H 3.5; A 2.86; F 2.84; P 4.28; C 2.38; T 4.07; N 3.27; E 3.01; Y 2.8; I 2.62; L 3.05; R 2.71; Q 3.26; D 4; G 3.27; V 2.29; W 2.76; M 2.48
